From the DeepSol protein solubility set

Experiment: soluble on expression in E. coli; label from the status in PepcDB or PDB records

Row | Sequence | soluble on expression in E. coli
1 | MIMICPGCSCLCDDIYIKDGKVFNACRRGEEIFAKYNENRAVARVDGKEVDVDTAIEKAIEILKDAKNPAIYGLDTTVVEAQSLAIEVAEKLNGYIDDNSSFCLGELVEAVLKGEIPTTTLDEVRDNAYVLVYWGTNPYHSLSRHMSKYTYYPRGKRRPRGYDEDRYLVVVDVRKSETAKLAKKNAKFIQVESDAELVDSFMKVVDGKAAKYAKEAGAIITEMKKADFNVIFGGLGLKYGLKDLNMFKEMVKKLNEVAKVYFIPAGFHGNMRGFNETLFEKVGYVNKYSFRDGKSGEEFAFTELLKNEKIDAALIVGTDPVYSLPFDVSSKLGKVKTIVIDPRMSFTARIADVVIPSAISGIEAGGTMVRSDGVRVMLEPLEEKEVNDVYILQRIKEGL | not soluble
2 | MGSDKIHHHHHHAAGSSSSSGSSSPSATLTPKDSQATTVFTTTNPSLTLSKVPNIDFGSNATPNGSTDLSVQAAKVDSDLEVANDGIASGWNVQVMNSAFTDSATNNSLYGAKLSFAAAGVAPANADNASPKPAMSAVSLSGDGQNQLVLSAPVKGGLGIWDTEYALSDFKLSVPAGQLPGSYVSNLTWQLSNAPQ | not soluble
3 | MAVKRPVRVLVNMDGVLADFESGLLQGFRRRFPEEPHVPLEQRRGFLANEQYGALRPDLAEKVASVYESPGFFLNLEPIPGALDALREMNDMKDTEVFICTTPLLKYDHCVGEKYRWVEQNLGPEFVERIILTRDKTVVMGDLLIDDKDNIQGLEETPSWEHILFTCCHNQHLALPPTRRRLLSWSDNWRGIIESKRASL | soluble
4 | MARTEIWLRLMYVGDLYGEAMLNMANSLIRQPQINRTHLQEAGLTARQAERFLQLPAGVLDETLRWLELPQHHFLCADSEIYPPQLRAIDDYPGAIFIDGDPACLHTCQLAVVGSRSHSWYGERWGRLLCESLAKSGLTITSGLARGIDGVAHNAAVSMGGKSVAVLGNGLAKIYPRRHAMLAENLIATGGAVVSEFPLSTPPLPQHFPRRNRIISGLSKGVLVIEAALRSGSLVTARCALEQGRDVFALPGPIGSPGSEGTHWLIKQGATLVTTPEDILENLQYGLHWLPTTAENSLYSLNQDEAALPFPELLANVGDEVTPVDVVAERAGQPVPAVVAQLLELELAGWIAAVPGGYVRLRRASHVRRTNVFV | not soluble
5 | MPSSPAERYAQALASGQFMPDEAQAQAVQELERVWQELLSRYKASKKAFRRFRRQTSPKGVYMWGGVGRGKTWLMDQFYDSIPFRRKTRMHFHHFMQHVHRELNKLSGQRNPLDLVADQIYKDAVIICFDEFFVSNVTDAMILSDLFQKLFNRGVTLVATSNIAPDGLYKNGIHRDRFLPTIELVQKNCTILNVDAGVDYRLRVLKQAQLFKHPLTDDAKIWMSQRFSAITRSQIVSQQPITINNRVVETLGHTEDVLWCEFSELCLKPRSPADFIEIANIYNTVLVSNVPHLTDYLSEGTRRFIYLVDEFYDRGVKLLLTSQDSIIEIYEGEKLAFEIERTRSRLLEMQSDEYLHSLEHHHHHH | soluble
6 | WCYEIQTEDPRSSCLGPEKWPGACKENQQSPINIVTARTKVNPRLTPFILVGYDQKQQWPIKNNQHTVEMTLGGGACIIGGDLPARYEAVQLHLHWSNGNDNGSEHSIDGRHFAMEMHIVHKKLTSSKEDSKDKFAVLAFMIEVGDKVNKGFQPLVEALPSISKPHSTSTVRESSLQDMLPPSTKMYTYFRYNGSLTTPNCDETVIWTVYKQPIKIHKNQFLEFSKNLYYDEDQKLNMKDNVRPLQPLGKRQVFKSHA | soluble
7 | MTIDNYDNSKQDSSKYEVSGTGDGRNGDGGLPLVQCVARARIPTTQGPDIFLHLYSNNRDNKEHLAIVFGEDIRSRSLFRRRQCETQQDRMIRGAYIGKLYPGRTVADEDDRLGLALEFDDSTGELLASKATTWDAHNDTLVRIHSECYTGENAWSARCDCGEQFDRAGRLIACDHEPTSNIKGGNGHGVIVYLRQEGRGIGLGEKLKAYNLQDLGADTVQANLMLKHPVDARDFSLGKAILLDLGIGNVRLLTNNPEKIKQVDHAPYLKCVERVPMVPIHWTNSSEGIDSKEIEGYLRTKIERMGHLLTEPLKLHTNPQPTETSEAQNQNRMNSALSSTSTLAI | soluble
8 | METLSDVFATFSQRGDTTAFVHRTGVRRYVFTYLDLHALSLRMNRWLADQGVGEGDRVVLWGPNSPWWAVAFWGIVTRGAVAVPVDFMSGAERAEIIAGLTDAKLVIQSRDKLDRLTGRPSVLLEELGFLLEAVEPLATTHRPAPDDMAELIYTSGTTGNPKGVILTHRNLVANILQVNRHIPVVTPDFSFLSLLPLSHMFEQMGGFFTPLYRGAAIVYIRTLKPSAIMEALGEEDIYAIIAVPRLLQLLKGSVERELEAKGLGSIFRWLLKVGERMSRGGRSVLFRPIQRKFGRNFALFVSGGAPLDPEVFRFWNGLGFRVVEGYGLTECSPVLTANTMERQVMGSVGTPLDGVELRLEEGEILARGDNIFPGYFRNEEATRGAFVDGWFRTGDLGELDPDGWLRIKGRSKELIVTGAGVNVYPDEIEAILNRTQGVREGCVIGLDRGKGEEVHGVLILDGSGRPTEEIVNEVNAKFDELHRITSFSVWPEAEFPKTTTLKIRKFQVKERIEQGGGALGDGRGADRLTALVATITGSPLEQVTEGALLVNDLGLTSIARLELVNALEMEFRLDLEDSVIGPQTRVADLREIVSRREKVHIREHFRIWAMGGVALAVRRLLDTVLHGPLLRAFVTLKSLGIENLEAADGPVMFVSNHLSYLDQPAIMCVLPDAWRYNTATAAWEEFFFRNFKNLPQRLWKRFTYEYASVAFTVFPLPQSRGFRGALHFMGTLADQGMNILLFPEGERSRDGRLLPFQQGLGVMIRELGVPVVPVRIRGLEKVLPRGASWPQKGEVSITFGKPIHFRGESPTEIVDRARRAVEDLLEHHHHHH | not soluble
9 | MAHHHHHHMDSTYKEPSSAAVPTSYAVLSLPSKATMRRKGYNPDEVNYNGGLATHPLATWKTFSLPDGCTYKDAVSAVQTANAKPWGPIKIRLNFSDGRYEQFERVAPSVMDSLQSTTTYSPNDAFKAETLSLSTMRRAQQQPRLRPLVDERGHHLSNKPIPRTFAPEELYKNCPPPVLSQPGYDFTPISYNTFLLNPQDPPHGVRNVQSNFMHSSCDYRPRSYLRPEQATGTSHASRHCHCNEVFQVGDHTMDFACEGTTVDHRNRLVKKDYSPVGTLKANSSIVGRRHARKPRFGCTGVADSQTVAAAVAPAADEETA | soluble
10 | MSRTYDLASDVIRRVYERRIDAPAILDSASEFPNAAKFTNAWRDIRDEALGVHLGKVPRFHDIMPEQADISANDGLDWRMFVLKAYDMAVPENLARMPVLSRLLAECPEVKSAAISFLAPRKHIPSHRGPFRGIMRFHLGLVIPRQADGRPATIMMIDHQEKRITDGEGMLWDDTYPHEVMNNADETRIALLLDVWRPGMPWDMEMLSRLIVRGVQAGMRRRGVSFSGLEHHHHHH | soluble
11 | MKPSHQQQKQASAAKDEKKDIIPLSAEKADGAEGWLNNSTILYTASNPTKTELFPYRIFTGKAKKLYQTDGQIVDVQINAREQMILLQITHSQKTAVVLLNAEGETLYEKDYETYELEAAWNQYDPYQMMVTEFNENWDFHTYQVNAKKDESFLSPVQVPFIHWTSKNTFDYVKEGRDDKTGPLYTFDTASKTEQKLEDNVLFFDSFHQMSFTVKSASGGKGTYQFKTPQSTSPVTAKWPLQAKYTSLAPMEYDYDEAGSLFYTFKQSGDAYKLAAINVASGETKDLVSLREMEPIQISPNGKYALYGFHFEQIILLKSHETKQLIIDQKEMELEHHHHHH | soluble
12 | FPTPKPVPAPQQAAQQQAVTASAEAALAPATPITVTTDTVQAVIDEKSGDLRRLTLLKYKATGDENKPFILFGDGKEYTYVAQSELLDAQGNNILKGIGFSAPKKQYSLEGDKVEVRLSAPETRGLKIDKVYTFTKGSYLVNVRFDIANGSGQTANLSADYRIVRDHSEPEGQGYFTHSYVGPVVYTPEGNFQKVSFSDLDDDAKSGKSEAEYIRKTPTGWLGMIEHHFMSTWILQPKGRQSVCAAGECNIDIKRRNDKLYSTSVSVPLAAIQNGAKAEASINLYAGPQTTSVIANIADNLQLAKDYGKVHWFASPLFWLLNQLHNIIGN | not soluble
13 | MGSDKIHHHHHHMDDEIKKAITNYDDRPAMTKSTQKVFKNQQEMRTVLRDEVEVWQLIHQTDKQAEANIKPKLPPLAGARIMFRHFDFCLFSHDESERMAAYLPNDGIYTQNYRYLKRLIALMYPSYNLRQALDVIYHLEMMAPVRALTIDRYLVPVNNGIWNLHQHQLIPFSPKYVFTTKIATNYRDNATTPNIKGWTIDNWFDELACGDDEIVELLWEVINDCLNGNYTRKKAIFLFSELGNSGKGTFQELITNLVGMDNVGTLKVNEFDVRFRLAGLVGKTVCIGDDIAPDIYIKDSSNFNSVVTGDLVNIEFKGQDGYTSALRCTIVQSCNGLPNFHNKGGTMRRLVIVPFNNHFQGKGDNWSIRNDYITRKDVLEYVLYKALQLDFDKFSVPEVSKKALADFELDNNPLIGFKVSFFDKLKVDKVPTYYLYEYYKKYCSINGLKALGQSKFIRRFMTCVPLYEKKQAKLSATDINTLDVFKQQDEIIAWPREPLAGKKYNCIVQSTL | not soluble
14 | MSKRNTPQRRHNILALLNEQGEVSVDELAKRFETSEVTIRKDLAALESNGLLLRRYGGAITMPQELVSDIGQPVSLYKQAIARAAVQRIREHARIIIDSGSTTAAMIPELGLQPGLVVMTNSLNVANALSELEHEPVLLMTGGTWDPHSESFQGQVAEQVLRSYDFDQLFIGADGIDLARGTTTFNELLGLSRVMAEVAREVVVMVESDKIGRKIPNLELPWSSVHTLITDDRLPLEVRDQIQARGITLICAAVSLEHHHHHH | soluble
15 | QIVLTQSPAIMSASLGDRVTMTCTASSSVSSSYLHWYQQKPGSSPKLWIYSTSNLASGVPARFSGSGSGTSYSLTISSMEAEDAATYYCHQFHRSLTFGSGTKLE | soluble
16 | MGSDKIHHHHHHMIYLEQFTFPDGDRESIFFQDKVKRTCYDSYYPFQVLPGRGLERLDFDLITILYGGNGSGKSTLLNIIAEKTEIPRDAIYNKSNFFPDYVAMCEMQLKVFLPEHSRIITSDDVFDYMLNIRSLNEGIDRKREQLFDDYLEAKYSRFQLKSLADYEELKRVNHARFNSQSRFVRNELMDNAREYSNGENAFRYFTEKIDEKGLYLLDEPENSLSPKRQLELVQFIEDSARFWQCQFIIATHSPFLLALRGAKIYNLDETPVAVKRWTELENVRIYYDFFKKREREF | not soluble
